Experimental findings from patent US7858577B2, “Use of the long pentraxin PTX3 for the treatment of diseases caused by an altered activation of the growth factor FGF-2” (Sigma-Tau Industrie Farmaceutiche Riunite S.p.A., priority 2000, dated 2010) are described below.

The target of experiment [1] is T1, FGF-2 (Homo sapiens, UniProt P09038).
T1 construct: made in house
The experiment can be described thus: Capacity of PTX3 to bind FGF in solution (Superose 12 size exclusion chromatography, dot-blot). It counts as binding. As to conditions: FGF-2 pre-incubated with PTX3 10 min at 4° C., Superose 12 column. Here is the method: This experiment has been performed in order to evaluate PTX3 binding to FGF-2. PTX3 has been produced as described by Bottazzi et al., 1997, J. Biol. Chem. 272:32817-32823. Human recombinant FGF-2 has been produced as described by Isacchi A. et al., Proc. Natl. Acad. Sci. U.S.A. (1991), 88:2628-32. When necessary, FGF-2 has been labelled with ^125I following the method described by Isacchi et al. (see below).
100 μl of PBS containing 1 μg of FGF-2, (or alternatively 1 μg of PTX3) were chromatographed on a size exclusion fast protein liquid chromatography Superose 12 column (Pharmacia): this column is able to separate proteins depending on their molecular weight. The column was eluted with PBS at a flow rate equal to 1 ml/minute and 1 ml fractions were collected and analyzed by dot, blot with specific antibodies for the two proteins. In order to evaluate PTX3 binding to FGF-2 the two proteins ([…] and 1 μg, respectively), were mixed in 100 μl PBS and incubated at 4° C. for 10 min. before loading onto the column. Fractions were collected and analysed by dot-blot with anti FGF-2 specific antibodies. […] In the same conditions PTX3 (450.000 D) is eluted with the void volume of the column (7 ml.) When FGF-2 pre-incubated with PTX3 for.
For orientation: Size exclusion chromatography separates by hydrodynamic size, large species first.

The subject of a further experiment is GM 7373 cells. The experiment can be described thus: Effect of PTX3 on proliferation induced by other mitogens (FCS, DAG, TPA, EGF, VEGF). It counts as cell-based, bovine. As to conditions: 10% FCS, 5 μg/ml DAG, 10 ng/ml TPA, 30 ng/ml EGF or 30 ng/ml VEGF. On the procedure:
GM 7373 cells were seeded at 75,000 cells/cm^2 in 48-well plates in Eagle MEM containing 10% FCS. After 24 h at 37° C. adherent cells were washed twice with Eagle's MEM without FCS and subsequently incubated for 24 h at 37° C. in Eagle's MEM containing 0.4% FCS in the absence or in the presence of FGF-2 (10 ng/ml) and increasing concentrations of PTX3. At the end of incubation cells were trypsinized and counted. In a different set of experiments GM 7373 cells were treated as described above in the presence of different mitogenic stimuli: 10% FCS; 5 μg/ml dyacyl-glycerol (DAG); 10 ng/ml phorbol ester (TPA) 30 ng/ml epidermal growth factor (EGF) or 30 ng/ml vascular endothelial growth factor (VEGF). Results reported in FIG. 7 shown that PTX3 inhibits the mitogenic activity exerted on endothelial cells by FGF-2 in a dose-dependent manner with an ID50 equal to 30 nM. This value is similar to the Kd calculated for the interaction FGF-2-PTX3.

Experiment [2] deals with low affinity receptors (HSPGs) on GM7373 cells. The experiment can be described thus: Effect of PTX3 on 125I-FGF-2 binding to low affinity receptors on endothelial cells. It counts as cell-based, bovine. As to conditions: 125I-FGF-2 10 ng/ml, 2 h at 4° C., increasing concentrations of PTX3. On the procedure:
Transformed foetal bovine aortic endothelial cells GM7373 were seeded at 80,000 cells/cm^2 in 24-well dishes in Eagle's minimal essential medium (Eagle's MEM) containing 10% FCS. After 24 h at 37° C. adherent cells were washed twice with Eagle's MEM without FCS and subsequently incubated for 2 h at 4° C. with ^125I-FGF-2 (10 ng/ml) in Eagle's MEM containing 0.15% gelatine and 20 mM HEPES pH 7.5 in the absence or in the presence of increasing concentrations of PTX3. At the end of incubation the amount of ^125I-FGF-2 bound to low (HSPGs) and high affinity receptors (FGFR) was evaluated as described by Moscatelli, 1987 J. Cell. Physiol. 131:123-30. Briefly cells were rinsed twice with 2 M NaCl in 20 mM HEPES buffer (pH 7.5) to remove ^125I-FGF-2 bound to low-affinity binding sites and twice with 2 M NaCl in 20 mM sodium acetate (pH 4.0) to remove ^125I-FGF-2 bound to high-affinity binding sites. Non-specific binding was measured in the presence of a 100-fold molar excess of unlabeled FGF-2 and subtracted from all the values.

In experiment [3] the test system is neovascularization induced in vivo by FGF-2. The experiment can be described thus: Chick embryo chorioallantoic membrane (CAM) assay, neovascularization induced by FGF-2. As to conditions: gelatin sponge, FGF-2 500 ng/sponge, PTX3 5 ug/sponge, scored after 4 days. Here is the method:
The antiangiogenic potential of PTX3 was evaluated in vivo in the chick embryo chorioallantoic membrane (CAM) assay. Briefly, a window was opened in the egg shell of 3 day-old fertilized chicken eggs. At day 8, gelatin sponges were implanted on the CAMs and adsorbed with 10 ul of PBS alone or containing FGF-2 (at 500 ng/sponge) in the absence or in the presence of PTX3 (5 ug/sponge) (5-6 embryos per group).

For experiment [4], the target named is T1, FGF-2. The experiment can be described thus: Dissociation constant (Kd) of FGF-2/PTX3 interaction, Scatchard plot. The experiment is classed as binding. As to conditions: increasing doses of 125I-FGF-2 on plastic immobilised PTX3, Scatchard plot. On the procedure:
With this experiment the dissociation constant (Kd) FGF-2/PTX3 interaction has been determined. For this purpose increasing doses of ^125I-FGF-2 were incubated with plastic immobilised PTX3 and binding results were analysed by Scatchard plot. […] This affinity is similar to the affinity previously calculated for the interaction of PTX3 with its physiological ligand C1q.

The target in experiment [5] is T2, interaction between 125I-FGF-2 and plastic immobilised PTX3 (Homo sapiens, UniProt P09038+P26022).
T2 construct: made in house
T2 sequence (P09038 134-288): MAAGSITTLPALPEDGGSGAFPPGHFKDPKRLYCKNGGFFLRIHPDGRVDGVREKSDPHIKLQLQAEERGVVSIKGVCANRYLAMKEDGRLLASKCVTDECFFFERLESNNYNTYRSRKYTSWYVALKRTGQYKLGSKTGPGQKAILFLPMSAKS
T2 sequence (P26022 18-381): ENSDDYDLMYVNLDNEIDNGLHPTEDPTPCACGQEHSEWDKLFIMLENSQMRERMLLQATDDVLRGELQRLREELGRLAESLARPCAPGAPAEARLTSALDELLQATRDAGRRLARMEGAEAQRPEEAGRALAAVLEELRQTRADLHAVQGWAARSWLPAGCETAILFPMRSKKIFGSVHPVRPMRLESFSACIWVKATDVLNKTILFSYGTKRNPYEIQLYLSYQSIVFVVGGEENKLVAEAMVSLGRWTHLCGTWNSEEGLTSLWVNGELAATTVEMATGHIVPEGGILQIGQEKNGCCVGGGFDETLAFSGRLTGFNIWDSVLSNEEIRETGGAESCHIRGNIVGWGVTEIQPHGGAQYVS
The experiment can be described thus: 125I-FGF-2 binding to plastic immobilised PTX3 in the presence of an excess of competitor. As to conditions: excess of competitor: FGF-2 or Cytocrome C 100 nM, soluble PTX3 300 nM. Here is the method: 96 wells plates were coated at 4° C. with 100 μl of NaHCO3 pH 9.6 containing PTX3 or C reactive protein (200 nM) or alternatively 2 μg/ml of the following proteins used as negative control: bovine serum albumin, fibronectin, gelatine or laminin. After incubation, wells were washed 3 times with PBS and blocked 2 h at room temperature with 200 μl of 1 mg/ml of BSA in PBS. At the end of incubation wells were washed 3 times with PBS and subsequently incubated with 30 ng of ^125I-FGF-2 for 2 h at room temperature. Wells were subsequently washed 3 times with PBS and bound ^125I-FGF-2 was recovered by washing each well twice with 200 μl of 2% SDS in water. Levels of ^125I-FGF-2 were measured in a gamma counter.
In a second set of experiments the binding of ^125I-FGF-2 to plastic immobilised PTX3 has been tested in the presence of an excess of both native or heat denatured cold FGF-2 (100 nM), in the presence of similar Cytocrome C concentrations or in the presence of an excess of soluble PTX3 (300 nM).

What is called Kd is a measure of binding affinity in units of concentration. A lower Kd goes with a tighter complex.

T1 sequence (P09038 134-288): as the sequence (P09038 134-288) above

Regarding “PTX3: long pentraxin PTX3; preferred is human PTX3, sequence described in WO99/32516; produced as by Bottazzi et al. 1997”, the “binding of PTX3 to FGF-2 in solution (change of FGF-2 chromatographic behaviour)” value with FGF-2 [1] is on record as “FGF-2 was eluted from the column with a retention volume equal to PTX3 alone”. Besides, the “inhibitory activity when other mitogens are used to induce cellular proliferation” value in the experiment with GM 7373 cells was “not detectable”. For the same substance, the “inhibition of FGF-2 binding to low-affinity receptors on endothelial cells” value in experiment [2] is given as “able to inhibit in a dose-dependent manner”. The “effect on neovascularization induced in vivo by FGF-2 (angiogenic response score 0-4+)” value in experiment [3] is listed as “able to block the neovascularization”. Besides, the Kd with FGF-2 [4] lay in the range of 8 to 16 nM. Besides, the “inhibition of the interaction between 125I-FGF-2 and plastic immobilised PTX3” value in experiment [5] was “inhibited the interaction”.
